Assay results from publication PMC4516936 (Toxins, 2015).

Legend:
[1] = target: cholera toxin A2 CTA2 (Vibrio cholerae) (UniProt P01555); test: SPR; details: cited from earlier work
[2] = target: cholera toxin A1 subunit (CTA1), reduced, free (UniProt P01555 19-212); test: SPR; details: both partners purified
Sequence of cholera toxin A1 subunit (CTA1), reduced, free (P01555 19-212): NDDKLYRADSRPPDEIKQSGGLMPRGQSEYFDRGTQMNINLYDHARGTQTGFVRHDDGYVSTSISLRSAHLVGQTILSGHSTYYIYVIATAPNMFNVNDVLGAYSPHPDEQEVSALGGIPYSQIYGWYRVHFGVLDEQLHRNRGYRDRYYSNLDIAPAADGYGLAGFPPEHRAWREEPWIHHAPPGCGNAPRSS

**Q.** Which Kd [1] does the source give for “cholera toxin A1 CTA1 (from UniProt P01555)” here?
**A.** 53 nM

B1: CTA2/CTB5 complex (complex)
chain 1: MSNTCDEKTQSLGVKFLDEYQSKVKRQIFSGYQSDIDTHNRIKDEL
chain 2: TPQNITDLCAEYHNTQIYTLNDKIFSYTESLAGKREMAIITFKNGAIFQVEVPGSQHIDSQKKAIERMKDTLRIAYLTEAKVEKLCVWNNKTPHAIAAISMAN
notes: copies: + 5
**Q.** For B1, which kon [2] is on record?
**A.** 521 M⁻¹ s⁻¹
